# Test results published in patent US20230151079.
# System: Recombinant protein (SEQ ID NO: 1), modified from sculptin of the tick Amblyomma cajennense
row,Substance,"hydrolysis of recombinant protein by serine protease (SDS-PAGE, 6 h)"
1,factor Xa,factor Xa also converted the recombinant protein in fragments
2,plasmin,strip of 20-kDa completely disappeared in recombinant protein incubated by plasm in and trypsin
3,thrombin,strip intensity of 20-kDa (corresponding to non-digested recombinant protein) decreased and strips of lower molecular weight appeared in recombinant protein incubated by thrombin
4,trypsin,strip of 20-kDa completely disappeared in recombinant protein incubated by plasm in and trypsin
